Assay results as given in US20050058643A1 (APITOPE TECHNOLOGY BRISTOL, published 2005).

Target: T1, HLA:DR2 (DRB1*1501) MHC Class II molecule (human)
T1 construct: whole, on cells
Test: conclusion drawn from presentation and tolerance experiments (fixed HLA-DR2+ APC; HLA:DR2 transgenic mice); no direct binding assay

**Q.** Does GFKGVDAQGTLSKIF (also called APITOPE-MS-6) [MBP peptide 140-154] bind?
**A.** binds
